The values below come from the nanobody polyreactivity screen of Harvey et al. (2022).

This data set in a line: yeast display, Sf9 membrane polyspecificity reagent, FACS + sequencing; frameworks hold sequencing errors. The gist of the method: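 Synthetic nanobody libraries on Saccharomyces cerevisiae BJ5465 were galactose-induced for 36–48 hours, stained 1 hour at 4 °C with 10% biotinylated, detergent-solubilized Sf9 membrane reagent and enriched on streptavidin microbeads. FACS then separated cells into low and high (top ~1%) gates by anti-HA (expression) and streptavidin (reagent binding) fluorescence. Genes were colony-PCR amplified, MiSeq 2 × 250 sequenced and CDR-length filtered. A clone's polyreactivity label is that of its gate of origin.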
For “QVQLVESGGGLVQAGGSLRLSCAASGNILIGNVMGWYRPAPGKERELVAAITSGGDTYYADSVKGRFTITRDNAKNTVYLQMNSLKPEDTAVYYCAADRPGQPKYEYWGQGTQVTVSS”, the “polyreactivity (PSR sort gate)” value is “low polyreactivity”.
The same measure for “QVKLVESGGGLVQAGGSLRLSCAASGRTFAWYTMGRYRQAPGKERALVAAISGSGGSTYYADSVKGRFTISRDNAKNTVYLQLNSLKPEDTDVYYCARRVDSYYCHTRYYYWGQGTQVTVSS”: “high polyreactivity”.
The same measure for “QVQLVESGGGLVQAGGSLRLSCSASGSTFHRYAMGWYIQAPGKERELVARINGSGGSTYYADSVKGRFTISRDNAKNTVYLQMNSLKPEDSAVYYCAADGLYYTYGYDYWGQGTQVTVSS”: “low polyreactivity”.
The same measure for “QVQLVESGVGLVQAGGSLRLSCAASGITFGRNTMGWYRQAPGKERELVAAIDSGGNTYADSVKGRFTISRDNAKNTVYLQMNSLRSEDTAVYYCNARETHQSRYGYWGQGTQVTVSS”: “low polyreactivity”; for “QVQLVESGGGLVQAGGSLRLSCAASGRTFPYNAMGWYRQAPGKERELVAAISYSGGRTYYADSVKGRFTISRDNAKNTFYLQMNSLKPEDTAVYYCNALGSGREDDYWGQGTQVTVSS”: “high polyreactivity”; for “QVQLVESGGGLVQAGGSLRLSCAASGRIFGGNAMGWYRQAPGKERELVAAISKRGGSTYYADSVKGRFTISRDNAKNTVYLQMNSLKPEDTAVYYCAAGFTAWTGVWYGYWGQGTQVTVSS”: “high polyreactivity”.
For “QVQLVESGGGLVQAGCSLRLSCAASGSSFYTYTMGWYRQAPGKERELVAAITWSGGSTYYADSVKGRFTISRDNAKNTVYLQMNSLKPEDTAVYFCNADQDYQAARPSGMDYWGQGTQVTVSS”, the “polyreactivity (PSR sort gate)” value is reported as “low polyreactivity”.
Take “QVQLVESGGGLVQAGGSIRLSCAASASIFQSYAMGWYRQAAGKERELVATITYSAGSTYYSDSVKGRFTITRDNAKNTVYLQMNSLKPEDTAVYYCDARRRGTIKTRMDYWGQGTQVTVSS”: the “polyreactivity (PSR sort gate)” value is given as “high polyreactivity”.
With “QVQLVESGGGLVQAGGSLRLSCAASGRIFGWYAMGWYRQAPGKERELVADIRYRGGSTYYADSVKGRFTISRDNAKNTVYLQMHSLKPEDTAVYYCAALGFVPVPYDYWGQGTQVNVSS” the entry was “low polyreactivity”; with “QVQLVESGGGLVQAGGSLRLSCAASGSTFIWYARGWYRQAPGKERELVAAISRSGGSTYYADSVKGRFTISRDNAKNTVYLQMNSLKPEDTAVYYCNTYPTYQYYYWGQGTQVTVSS”, “high polyreactivity”; with “QVQLVESGGGLVQAGGSLRLSCAASGSTFRTNTRGWYRQAPGKERELVAAITKSGGSTYYADSVKGRFTISRDNAKNTVYLQMNSLKPEDTAVYYCAARVLYRSGLRGDYWGQGTQVTVSS”, “high polyreactivity”.
On to “QVQLVESGVGLVQAGGSLRLSCAASGRIFATNAMGWYRQAPGKERELVATITRSAGRTYYADSVKGRFTISRDNAKNTVYLQMNSLKPEDTAVYYCAASYWDTEPGYREYDYWGQGTQVTVSS”, for which the “polyreactivity (PSR sort gate)” value is recorded as “low polyreactivity”.
The same measure for “QVQLVESGGGLVQAGGSLRLSCAASGRTFVVKAMGWYRQAPGKERELVAAITRRGGITYYADSVKGRITISRDNAKNTVYLQMNSLKPEDTAVSYCAADRSYYPDTRTTSGYNYWGQGTQVTVSS”: “low polyreactivity”; for “QVQLVESGGGLVQAGGSLRLSCAASGSTFTYYAMGWYRQAPGKERELVAAIDFSGTSTYYADSVKGRFTISRDNAKNTVYLQMNSLQPEDTAVYYCAASQSWYWGGAQDNGEFGYWGQGTQVTVSS”: “low polyreactivity”.
Turning to “QVQLVESGGGLVQAGGSLRLSCAASGSTFYGYVMGWYRQAPGKERELVAAITWRGTSTYYADSVKGRFTISRDNAKNTVYLQMNSLKPEDTAVYYCRGYYDRDVDYWGQGTQVTVSS”, the “polyreactivity (PSR sort gate)” value is listed as “high polyreactivity”.
With “QVQLVESGGGLVQAGGSLRLSCAASGITLGTYAMGWSRQAPGKERELVAGISTSGGSTYYADSVKGPFTISRDNAKNTVYLQMNSLKPEETAVYYCAKRRYGSGYYRYRGYDYWGQGTQVTVSS” the entry was “high polyreactivity”.
The same measure for “QVQLVESGGGLVQAGGSLRLSCAASGPMFTSNAMGWYRQAPGKERELVAAISRRGTRTYYADSVKGRFTISRDIAKHSVYLQMNSLKPEDTAVYYCAATTGEQEDYWGQGTQVTVSS”: “high polyreactivity”; for “QVQLVESGGGLVQAGGSLRLSCAASGYTFRYYVMGWYRQAPGKERELDAAISQRGGSTYYADSVKGRFTISRDNAKNTVYLQMNSLKPEDTAVYYCAASYSTYASRGYGYWGQGTQVTVSS”: “high polyreactivity”.
With “QVQLVESGGGLVQAGGSLRLSCAASGSIFQVYAMGWYSQAPGKERELVAAITKSGVSTYYADSVKGRFTISRDNAKNTVYLQMNSLKPEDTAVYYCAAPRYVRYHRGYGFDYWGQGTQVTVSS” the entry was “low polyreactivity”; with “QVQLVESGGGLVQAGGSLRLSCAASGITFASNTMGCYIQAPGKERELVAAITRGDNTYYADSVKGRFTISRDNAKNTVYLQMNSLKAEDPAVYYCATEGYQIQYEHDYWGQGTQVTVSS”, “low polyreactivity”.
“QVQLVESAAGLVQAGGSLRVSCAASGSSFRLYAMGWYRPAPGKEREFVARIRWRGGSTNYADSVKGRFTISRDNAKNNVYLQMNSLKTEDTAVYYCAAKQGTVRAHTYVPWYDYWGQGTQVTVSS”: the “polyreactivity (PSR sort gate)” value is listed as “high polyreactivity”.
With “QVQLVESGGGLVQAGGSLRLSCAASGYILFAYAMGWYRQAPGKERALVATITTSGGITYYADSVKGRFTISRDNAKNTVYLQMNSLKPEDTAVYYCAAAEGGGLVTYDYWGQGTQVTVSS” the entry was “low polyreactivity”; with “QVQLVESGGGLVQAAGSLRLSCAASGSTFPYYAMGWYRQAPGQERELVAAIPRSGGSTYSADSVKGRFTISRDHAKNTVYLQMNSLKPEDTAVYYCAAKLAQRYFYRYDYWGPGTQVTVSS”, “high polyreactivity”.
As for “QVQLVESGGGLVQAGGSLRLSCAASGSPFKRYAMGWYRQAPGKERELVASITRRGGSTYYADSVKGRFTISRDNAKNTVYLKMNSLKPEDSAVYYCAALQGRSSARQDSYGYWGQGTQVTVSS”, the “polyreactivity (PSR sort gate)” value was “high polyreactivity”.
The same measure for “QVQLVESGGGLVQAGGTLRLSCSASGSTFAINAMGWYRQPPGKERELVATITSGSNTNNADSVKGRFTISRDNAKNTVDLQMNSLNPEDTAVYYCAAAFGYRFHYGYFYIYDYWGQGTQVTVSS”: “high polyreactivity”.
With “QVQLVESGGGLVQAGGSLRLSCAASGRIFTSNAMGWYRQAPGKERELVAAINRSGGRTYYADSVKGRFTISRDNAKNTVYLQMNSLKPEDTAVYYCNKVPYVFGFAASDYWGQGTQVTVSS” the entry was “high polyreactivity”; with “QVQLVESGGGLVQAGGSLRLSCAASGRTLGYYAKGWYRQAPGKERELVAAISRSGGSTYYADSVKGRFTISRDNAKNTVYLQMNSLKPEDTAVYYCAATYGPSRYRYDYWGQGTQVTVSS”, “high polyreactivity”.
The same measure for “QVQLVESAGGLVQAGGSLSLSCAASGRIFNLYAMGWYRKAPGKERELVAAIRGRGTSTYYADSVKGRFTISRDNAKNTVYLQMNSLKPEDTAVYYCAREGGYGPTLQDTSRYEYWGQGTQVTVSS”: “low polyreactivity”; for “QVQLVESGGGLVQAGGSLRLSCAASGSIFGWYAMGWYRQAPGKERELVAAISWDGGDTYYADSVKGRFTISRDNAKNTVYLQMNSLKPEDTAVYYCAAELGYYDYGSYYSYDYWGQGTQVTVSS”: “high polyreactivity”.
As to “QVQLVESGGGLVQAGGSLRLSCAASGMILGVNVMGWYRQAPGKERELVAAISGGGRTYYADSVKGRFTISRDNAKNTVYLLMNSLKPEDTAVYYCAARVYSLGYGGDYWGQGTHVTVSS”, the “polyreactivity (PSR sort gate)” value is given as “high polyreactivity”.
Turning to “QVQLVESGGGLVQAGGSLRISCAASGSTFDPYGMGWYRQAPGTERELVAAITSSGRTNYADSVKGRFTISRDNAKNTVYLQMNSLKPEDTAVYYCATRKERYFYRGYEYWGQGTQVTVSS”, the “polyreactivity (PSR sort gate)” value is on record as “low polyreactivity”.
Regarding “QVQLVESGGGLVQAGCSLRLSFAASGFSFRRYALGSYIPAPGKERELVAAITNSGGSTYYADSVKGRFTISRDNAKNSVYLQLNSLKPEDTAVYYCVALRSACAYDYWGQGTQVTVSS”, the “polyreactivity (PSR sort gate)” value is given as “high polyreactivity”.
For “QVQLVESGGGLVQAGGSLRLSCAASGSTLSQYAMGLYRQAPGKERELVAAITKSGVRTYYPDSVKGRFTISRDNAKNTVYLQMNSLKREDTAVYYCAKATTKYIAPYDYWGQGTQVTVSS”, the “polyreactivity (PSR sort gate)” value is given as “high polyreactivity”.
The same measure for “QVQLVESGGGLVQAGGSLRLSCAASGRTFSWYAMGWYRQAPGKERELVAAISSSGGSTYYADSVKGRFTISRDNAKNTVYLQMNSLKPEDTAVYYCAVRYYSSLSQRYYSWGQGTQVTVSS”: “high polyreactivity”; for “QVQLVDSGGGLVQAGGSLRLSCAASGRTFSSYAMGSYRQAPGKERELVAAINWSGASTYYADSVKGRFTISRDYAKNTVYLQLNSLKPEDTAVYDCAKSLYVGKFWQIRSSVDYWGQGTQVTVSS”: “low polyreactivity”.
The same measure for “QVQLVESWGGLVQAGGSLRLSCDDSGFTIRVYAMGWYRQAPGKERELVAAISVRGDSTYYADSVKGRFTISRDNAKNTVYLQMNSLKPEDTAVYYCNAVIAPYRRYDYWGQGTQVTVSS”: “high polyreactivity”; for “QVHLVESGGGLVQPGGTLRLTCAASGSTFGSNARGWYRLAPGKESELVAAITRRGGSTYYADSVKGRFTISRDNAKNTVDLQMNSLKPEDTAVYYCDNVYYYLYTRYDYWGQGTEVTVSS”: “low polyreactivity”; for “QVQLVESGGGLVQAGGSLRLSCAASGITFGPYAMGWYRQAPGKERELVATISSSGGSTYYADSVKGRFTISRDNAKNTVYLQMNSLIPEDTAVYYCNAGYAPYLGAYDYWGQGTQVTVSS”: “low polyreactivity”.
With “QVQLVESAGGLVQAGGSLRLICAASGFTSNVYTMGWYRQAPGKERELVAAITSGGSTNYADSVKGRFTISRDNAKNTVYLQMNSLKPEDTAVYYCNTDVKEYFHHEGYPLRWEYDYWGQGTQVTVSS”, the “polyreactivity (PSR sort gate)” value is given as “low polyreactivity”.
With “QVQLVESGGGLVQAGGSLRLSCAASGNTFFIYAMGWYRPAPGKERELVAAITYSGGGTYYADSVKGRFTISRDNAKNTVYLQMYSLKPDDTAVYYCAADFYTGWSYIYDYWGHGTQVTVSS”, the “polyreactivity (PSR sort gate)” value was “high polyreactivity”.
